T1: TNFR1 (Homo sapiens, UniProt P19438)
T1 chain: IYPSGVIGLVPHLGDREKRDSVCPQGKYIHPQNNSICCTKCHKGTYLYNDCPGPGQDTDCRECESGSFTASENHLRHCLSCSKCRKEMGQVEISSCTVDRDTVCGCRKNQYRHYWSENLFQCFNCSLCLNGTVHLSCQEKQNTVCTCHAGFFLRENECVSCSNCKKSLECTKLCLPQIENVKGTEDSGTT

B1: I49P (designed binder)
chain: MTLQELLREEALRRAEAEAFRYALELLAEKFPEQKEYLLDLAEEIESQPRSLSGVDVEDVRKFLDKEWAWVKELLAEHPAELAEVEAARAARLAELRAEVEAKVAA
B2: L41A (designed binder)
chain: MTLQELLREEALRRAEAEAFRYALELLAEKFPEQKEYLLDAAEEIESQIRSLSGVDVEDVRKFLDKEWAWVKELLAEHPAELAEVEAARAARLAELRAEVEAKVAA
B3: L82P (designed binder)
chain: MTLQELLREEALRRAEAEAFRYALELLAEKFPEQKEYLLDLAEEIESQIRSLSGVDVEDVRKFLDKEWAWVKELLAEHPAEPAEVEAARAARLAELRAEVEAKVAA
B4: F20D (designed binder)
chain: MTLQELLREEALRRAEAEADRYALELLAEKFPEQKEYLLDLAEEIESQIRSLSGVDVEDVRKFLDKEWAWVKELLAEHPAELAEVEAARAARLAELRAEVEAKVAA
B5: A42F (designed binder)
chain: MTLQELLREEALRRAEAEAFRYALELLAEKFPEQKEYLLDLFEEIESQIRSLSGVDVEDVRKFLDKEWAWVKELLAEHPAELAEVEAARAARLAELRAEVEAKVAA
B6: E77I (designed binder)
chain: MTLQELLREEALRRAEAEAFRYALELLAEKFPEQKEYLLDLAEEIESQIRSLSGVDVEDVRKFLDKEWAWVKELLAIHPAELAEVEAARAARLAELRAEVEAKVAA
B7: S51W (designed binder)
chain: MTLQELLREEALRRAEAEAFRYALELLAEKFPEQKEYLLDLAEEIESQIRWLSGVDVEDVRKFLDKEWAWVKELLAEHPAELAEVEAARAARLAELRAEVEAKVAA
B8: M1G (designed binder)
chain: GTLQELLREEALRRAEAEAFRYALELLAEKFPEQKEYLLDLAEEIESQIRSLSGVDVEDVRKFLDKEWAWVKELLAEHPAELAEVEAARAARLAELRAEVEAKVAA
B9: A83M (designed binder)
chain: MTLQELLREEALRRAEAEAFRYALELLAEKFPEQKEYLLDLAEEIESQIRSLSGVDVEDVRKFLDKEWAWVKELLAEHPAELMEVEAARAARLAELRAEVEAKVAA
B10: E81M (designed binder)
chain: MTLQELLREEALRRAEAEAFRYALELLAEKFPEQKEYLLDLAEEIESQIRSLSGVDVEDVRKFLDKEWAWVKELLAEHPAMLAEVEAARAARLAELRAEVEAKVAA
B11: E5K (designed binder)
chain: MTLQKLLREEALRRAEAEAFRYALELLAEKFPEQKEYLLDLAEEIESQIRSLSGVDVEDVRKFLDKEWAWVKELLAEHPAELAEVEAARAARLAELRAEVEAKVAA
B12: D65R (designed binder)
chain: MTLQELLREEALRRAEAEAFRYALELLAEKFPEQKEYLLDLAEEIESQIRSLSGVDVEDVRKFLRKEWAWVKELLAEHPAELAEVEAARAARLAELRAEVEAKVAA
B13: L7I (designed binder)
chain: MTLQELIREEALRRAEAEAFRYALELLAEKFPEQKEYLLDLAEEIESQIRSLSGVDVEDVRKFLDKEWAWVKELLAEHPAELAEVEAARAARLAELRAEVEAKVAA
B14: H78T (designed binder)
chain: MTLQELLREEALRRAEAEAFRYALELLAEKFPEQKEYLLDLAEEIESQIRSLSGVDVEDVRKFLDKEWAWVKELLAETPAELAEVEAARAARLAELRAEVEAKVAA
B15: L6F (designed binder)
chain: MTLQEFLREEALRRAEAEAFRYALELLAEKFPEQKEYLLDLAEEIESQIRSLSGVDVEDVRKFLDKEWAWVKELLAEHPAELAEVEAARAARLAELRAEVEAKVAA
B16: V100Y (designed binder)
chain: MTLQELLREEALRRAEAEAFRYALELLAEKFPEQKEYLLDLAEEIESQIRSLSGVDVEDVRKFLDKEWAWVKELLAEHPAELAEVEAARAARLAELRAEYEAKVAA
B17: Y22F (designed binder)
chain: MTLQELLREEALRRAEAEAFRFALELLAEKFPEQKEYLLDLAEEIESQIRSLSGVDVEDVRKFLDKEWAWVKELLAEHPAELAEVEAARAARLAELRAEVEAKVAA
B18: K35P (designed binder)
chain: MTLQELLREEALRRAEAEAFRYALELLAEKFPEQPEYLLDLAEEIESQIRSLSGVDVEDVRKFLDKEWAWVKELLAEHPAELAEVEAARAARLAELRAEVEAKVAA
B19: Q4W (designed binder)
chain: MTLWELLREEALRRAEAEAFRYALELLAEKFPEQKEYLLDLAEEIESQIRSLSGVDVEDVRKFLDKEWAWVKELLAEHPAELAEVEAARAARLAELRAEVEAKVAA
B20: R50C (designed binder)
chain: MTLQELLREEALRRAEAEAFRYALELLAEKFPEQKEYLLDLAEEIESQICSLSGVDVEDVRKFLDKEWAWVKELLAEHPAELAEVEAARAARLAELRAEVEAKVAA
B21: A69L (designed binder)
chain: MTLQELLREEALRRAEAEAFRYALELLAEKFPEQKEYLLDLAEEIESQIRSLSGVDVEDVRKFLDKEWLWVKELLAEHPAELAEVEAARAARLAELRAEVEAKVAA
B22: E46R (designed binder)
chain: MTLQELLREEALRRAEAEAFRYALELLAEKFPEQKEYLLDLAEEIRSQIRSLSGVDVEDVRKFLDKEWAWVKELLAEHPAELAEVEAARAARLAELRAEVEAKVAA
B23: A76V (designed binder)
chain: MTLQELLREEALRRAEAEAFRYALELLAEKFPEQKEYLLDLAEEIESQIRSLSGVDVEDVRKFLDKEWAWVKELLVEHPAELAEVEAARAARLAELRAEVEAKVAA
B24: E58A (designed binder)
chain: MTLQELLREEALRRAEAEAFRYALELLAEKFPEQKEYLLDLAEEIESQIRSLSGVDVADVRKFLDKEWAWVKELLAEHPAELAEVEAARAARLAELRAEVEAKVAA
B25: W70M (designed binder)
chain: MTLQELLREEALRRAEAEAFRYALELLAEKFPEQKEYLLDLAEEIESQIRSLSGVDVEDVRKFLDKEWAMVKELLAEHPAELAEVEAARAARLAELRAEVEAKVAA
B26: A42T (designed binder)
chain: MTLQELLREEALRRAEAEAFRYALELLAEKFPEQKEYLLDLTEEIESQIRSLSGVDVEDVRKFLDKEWAWVKELLAEHPAELAEVEAARAARLAELRAEVEAKVAA
B27: A87C (designed binder)
chain: MTLQELLREEALRRAEAEAFRYALELLAEKFPEQKEYLLDLAEEIESQIRSLSGVDVEDVRKFLDKEWAWVKELLAEHPAELAEVECARAARLAELRAEVEAKVAA
B28: S53A (designed binder)
chain: MTLQELLREEALRRAEAEAFRYALELLAEKFPEQKEYLLDLAEEIESQIRSLAGVDVEDVRKFLDKEWAWVKELLAEHPAELAEVEAARAARLAELRAEVEAKVAA
B29: L39W (designed binder)
chain: MTLQELLREEALRRAEAEAFRYALELLAEKFPEQKEYLWDLAEEIESQIRSLSGVDVEDVRKFLDKEWAWVKELLAEHPAELAEVEAARAARLAELRAEVEAKVAA
B30: R21T (designed binder)
chain: MTLQELLREEALRRAEAEAFTYALELLAEKFPEQKEYLLDLAEEIESQIRSLSGVDVEDVRKFLDKEWAWVKELLAEHPAELAEVEAARAARLAELRAEVEAKVAA
B31: A88I (designed binder)
chain: MTLQELLREEALRRAEAEAFRYALELLAEKFPEQKEYLLDLAEEIESQIRSLSGVDVEDVRKFLDKEWAWVKELLAEHPAELAEVEAIRAARLAELRAEVEAKVAA
B32: E99A (designed binder)
chain: MTLQELLREEALRRAEAEAFRYALELLAEKFPEQKEYLLDLAEEIESQIRSLSGVDVEDVRKFLDKEWAWVKELLAEHPAELAEVEAARAARLAELRAAVEAKVAA
B33: A90H (designed binder)
chain: MTLQELLREEALRRAEAEAFRYALELLAEKFPEQKEYLLDLAEEIESQIRSLSGVDVEDVRKFLDKEWAWVKELLAEHPAELAEVEAARHARLAELRAEVEAKVAA
B34: Q48V (designed binder)
chain: MTLQELLREEALRRAEAEAFRYALELLAEKFPEQKEYLLDLAEEIESVIRSLSGVDVEDVRKFLDKEWAWVKELLAEHPAELAEVEAARAARLAELRAEVEAKVAA

Biological target: T1, TNFR1
Test: yeast display SC50

Binder	apparent Kd (screen)
B1	24.4 nM
B2	2.48 nM
B3	5.84 nM
B4	11.4 nM
B5	3.3 nM
B6	1.27 nM
B7	0.446 nM
B8	0.49 nM
B9	0.593 nM
B10	0.593 nM
B11	0.539 nM
B12	0.718 nM
B13	2.25 nM
B14	0.869 nM
B15	2.05 nM
B16	0.49 nM
B17	0.49 nM

Binder	apparent Kd (screen)
B18	2.73 nM
B19	0.539 nM
B20	0.539 nM
B21	0.49 nM
B22	0.718 nM
B23	0.539 nM
B24	0.718 nM
B25	13.8 nM
B26	1.05 nM
B27	0.446 nM
B28	0.956 nM
B29	0.869 nM
B30	0.956 nM
B31	0.653 nM
B32	1.27 nM
B33	0.869 nM
B34	1.27 nM
